# Data taken from CN1886424A (dated 2006).
# Assays:
# [1] = molecular target: T1, 纯化的/生物素化的全长人IGF-I受体 (purified, biotinylated full-length human IGF-I receptor) (human, UniProt P08069 31-1367, biotinylated with PEO-maleimide-biotin (Kd and competition ELISAs); unmodified when coated directly); test: ELISA titration of the Fab on human IGF-I receptor
# T1 construct: mature; also called 生物素化的IGF-I受体; 纯化的人IGF-I受体
# [2] = molecular target: T1, 纯化的/生物素化的全长人IGF-I受体 (purified, …); test: ELISA titration on biotinylated human IGF-I receptor captured on streptavidin, one-site non-linear regression
# [3] = molecular target: 人肿瘤细胞上的人IGF-I受体 (endogenous human IGF-I receptor of human tumour cells: MCF-7, NCI-H838, SaOS-2 and others) (human) (UniProt P08069); test: displacement of biotin-IGF-I from MCF-7 cells at 37℃, 30 min, 10-100 μg/mL antibody; capture ELISA
# [4] = molecular target: 人肿瘤细胞上的人IGF-I受体 (endogenous human IGF-I receptor of human tumour cells: MCF-7, NCI-H838, SaOS-2 and others) (human) (UniProt P08069); test: displacement of biotin-IGF-I from MCF-7 cells at 4℃, 2 h; capture ELISA
# [5] = molecular target: 人肿瘤细胞上的人IGF-I受体 (endogenous human IGF-I receptor of human tumour cells: MCF-7, NCI-H838, SaOS-2 and others) (human) (UniProt P08069); test: cell-based or functional assay
# [6] = molecular target: 过量表达于3T3样细胞上的人Y1251F IGF-I受体 (human IGF-I receptor with Y1251F mutation on 3T3-like cells) (human) (UniProt P08069); test: cell ELISA on dried cells overexpressing human Y1251F IGF-I receptor, 12 min colour development
# T1 sequence (P08069 31-1367 limits assumed): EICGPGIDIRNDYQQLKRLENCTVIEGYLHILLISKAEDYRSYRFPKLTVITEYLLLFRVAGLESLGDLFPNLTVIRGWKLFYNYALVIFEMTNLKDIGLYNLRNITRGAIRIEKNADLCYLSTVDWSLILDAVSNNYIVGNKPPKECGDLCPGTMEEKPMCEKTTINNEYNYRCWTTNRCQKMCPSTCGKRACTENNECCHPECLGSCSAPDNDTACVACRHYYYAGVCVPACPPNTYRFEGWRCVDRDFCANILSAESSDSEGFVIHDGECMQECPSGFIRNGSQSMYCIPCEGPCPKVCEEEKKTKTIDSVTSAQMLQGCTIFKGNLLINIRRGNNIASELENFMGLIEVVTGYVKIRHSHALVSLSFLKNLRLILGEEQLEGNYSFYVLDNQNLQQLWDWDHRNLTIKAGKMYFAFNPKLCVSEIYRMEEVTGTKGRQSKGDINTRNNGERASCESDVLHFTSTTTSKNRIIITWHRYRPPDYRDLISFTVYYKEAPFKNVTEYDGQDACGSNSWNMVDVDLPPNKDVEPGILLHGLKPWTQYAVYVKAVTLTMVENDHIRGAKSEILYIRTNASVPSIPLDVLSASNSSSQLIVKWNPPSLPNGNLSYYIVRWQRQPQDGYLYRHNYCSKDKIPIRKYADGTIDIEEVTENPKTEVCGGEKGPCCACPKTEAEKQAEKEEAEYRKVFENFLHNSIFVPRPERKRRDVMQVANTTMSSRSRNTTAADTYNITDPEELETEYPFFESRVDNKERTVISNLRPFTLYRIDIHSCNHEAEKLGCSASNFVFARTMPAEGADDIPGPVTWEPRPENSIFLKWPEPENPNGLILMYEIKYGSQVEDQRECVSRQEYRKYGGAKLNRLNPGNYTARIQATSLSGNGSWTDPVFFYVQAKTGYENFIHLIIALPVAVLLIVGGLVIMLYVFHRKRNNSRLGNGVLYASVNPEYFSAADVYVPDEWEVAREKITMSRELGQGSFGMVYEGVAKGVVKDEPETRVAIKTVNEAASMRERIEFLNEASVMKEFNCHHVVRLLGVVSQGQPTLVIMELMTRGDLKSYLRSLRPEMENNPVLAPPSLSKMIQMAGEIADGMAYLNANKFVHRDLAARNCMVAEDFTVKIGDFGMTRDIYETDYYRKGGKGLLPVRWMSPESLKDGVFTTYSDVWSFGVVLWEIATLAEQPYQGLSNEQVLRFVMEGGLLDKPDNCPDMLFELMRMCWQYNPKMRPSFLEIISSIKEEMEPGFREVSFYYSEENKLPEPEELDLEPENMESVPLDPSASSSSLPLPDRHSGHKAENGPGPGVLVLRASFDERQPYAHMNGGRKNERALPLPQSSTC
Kd [1],Kd [2],percent displacement of pre-bound biotinylated IGF-I [3],percent displacement of pre-bound biotinylated IGF-I [4],"MCF-7 cell cycle, percent of cells in G0/G1 phase with IGF-I (20 ng/mL) plus EM164 (20 μg/mL); 50% without EM164 [5]","MCF-7 cell cycle, percent of cells in S phase with IGF-I (20 ng/mL) plus EM164 (20 μg/mL); 41% without EM164 [5]","percent inhibition of IGF-I-stimulated growth in serum-free medium, MTT assay, A 375 (melanoma) [5]","percent inhibition of IGF-I-stimulated growth in serum-free medium, MTT assay, A431 (epidermoid) [5]","percent inhibition of IGF-I-stimulated growth in serum-free medium, MTT assay, Calu-6 [5]","percent inhibition of IGF-I-stimulated growth in serum-free medium, MTT assay, Colo 205 (colon) [5]","percent inhibition of IGF-I-stimulated growth in serum-free medium, MTT assay, HT-29 [5]","percent inhibition of IGF-I-stimulated growth in serum-free medium, MTT assay, SK-Mel-37 [5]","percent inhibition of IGF-I-stimulated growth in serum-free medium, MTT assay, SK-N-SH (neuroblastoma) [5]",absorbance (cell ELISA signal) (absorbance units) [6],Binder
0.3 nM,–,–,–,–,–,–,–,–,–,–,–,–,–,"EM164抗体的Fab片段 (Fab fragment of EM164, papain digest) (Fab, V domains shown, also called EM164 Fab) VH: QVQLQQSGAELVKPGASVKLSCKASGYTFTSYWMHWVKQRPGQGLEWIGEINPSNGRTNYNEKFKRKATLTVDKSSSTAYMQLSSLTSEDSAVYYFARGRPDYYGSSKWYFDVWGAGTTVTVSS VL: DVLMTQTPLSLPVSLGDQASISCRSSQSIVHSNVNTYLEWYLQKPGQSPKLLIYKVSNRFSGVPDRFSGSGSGTDFTLRISRVEAEDLGIYYCFQGSHVPPTFGGGTKLEIKR"
–,0.1 nM,90%,50%,77%,9%,90%,85%,85%,50%,60%,85%,85%,0.88,"鼠抗IGF-I受体抗体EM164 (murine anti-IGF-I receptor antibody EM164) (antibody, V domains shown, Purified from hybridoma; also called EM164抗体; muEM164) VH: QVQLQQSGAELVKPGASVKLSCKASGYTFTSYWMHWVKQRPGQGLEWIGEINPSNGRTNYNEKFKRKATLTVDKSSSTAYMQLSSLTSEDSAVYYFARGRPDYYGSSKWYFDVWGAGTTVTVSS VL: DVLMTQTPLSLPVSLGDQASISCRSSQSIVHSNVNTYLEWYLQKPGQSPKLLIYKVSNRFSGVPDRFSGSGSGTDFTLRISRVEAEDLGIYYCFQGSHVPPTFGGGTKLEIKR"
